Results on one substance are retold here after paper PMC3867821.

This assay concerns the target KLF4 (UniProt Q60793). As to the kind of experiment: anti-HA co-IP, STAT3 blot. Conditions: reference: wild-type FLAG-STAT3; sites Y705.

Turning to STAT3 (from UniProt P42227) Y705F, the “binding against the reference” value is “lost”.
